Values quoted from earlier work as cited in US20190351024A1, “IMMUNOCYTOKINES WITH PROGRESSIVE ACTIVATION MECHANISM” (PHILOGEN S.p.A., priority 2016, published 2019).

Conditions: past clinical trials; cited from earlier work

For TNF-α, the maximum tolerated dose is listed as 150-300 μg/m^2/day.
